Article PMC9860668

Target: rabbit muscle F-actin (rabbit) (UniProt P68135)
Experiment: single-molecule force spectroscopy (scanning force microscopy); Imp-PM19 or ∆D3 mutant covalently bound through a PEG crosslinker to the SFM tip; F-actin_(rabbit) with unlabeled phalloidin immobilised on poly-l-lysine mica; F-buffer pH 6.8; set point 800 pN; retraction speed 2 µm/s; 1000 curves; WLC fit

Substance: Imp-PM19-His (immunodominant membrane protein of 'Candidatus Phytoplasma mali' strain PM19, His-tagged) (natural protein)
- interaction force: 40 to 400 pN
- maximal work of adhesion: 4.5 to 5 aJ
- most frequently observed adhesion: 80 to 90 pN
- rupture force: 100 pN
